Test results: the supplement of paper PMC12042874
± gives the uncertainty stated by the source.

Assay: amyloid nucleation score (Sup35N fusion, yeast selection) (log enrichment); library NNK1; higher = more nucleation; inactive = no reads after selection
Procedure, shortened: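 Psi-negative yeast expressed Sup35N fused to peptides of 20 random codons. They were induced 24 hours with 100 μM copper sulfate, grown 7 days at 30°C without adenine and uracil, and their plasmid inserts from input and output were Illumina-sequenced. The nucleation score is the DiMSum log enrichment of output over input reads, centred on the mode score of non-aggregating sequences. Sequences with under 100 input reads were excluded.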

Substance	amyloid nucleation score
HTPLNRC	-0.469 ± 1.4
HTVNLAPRNPDPPS	0.259 ± 0.77
HVGRHTTTGHAGFCNCGNPN	3.46 ± 0.17
HVHWPLLNNAYAS	0.867 ± 0.93
HVLKGGRAAFVELRGKSHGL	-0.081 ± 0.96
HVQLELTSCKEGGGCRS	0.379 ± 0.78
HVSLVHLRYCRICSLLSMWG	2.77 ± 0.12
HVWRDGSE	1.82 ± 0.54
HVYSSVLCQQD	0.717 ± 0.65
HWCYVLNS	inactive
HWLGYVVLDLFDWPYCMIDL	1.38 ± 0.5
HWPGLVEYGLGWLRGRLVMG	0.139 ± 0.6
HYGSWLCELDVVLYCDCSVM	0.021 ± 0.62
HYHFDTACVWCDYSVHGNKD	7.38 ± 0.057
HYLCPVACRGRFVVSQPVNI	-1.14 ± 1.5
HYMMADLGFWQYP	0.138 ± 0.94
HYTLCCKFFNQHVGHAMQNE	1.87 ± 0.51
HYVKVRFRNRSVVYALIGGV	0.752 ± 0.54
HYVYRGQLRGHACKGWSYFG	0.531 ± 0.51
IAAVQ	0.162 ± 0.89
IACFFQT	1.66 ± 0.21
IARAVSSESASVWVKDT	-1.62 ± 2.7
IASLRIIDSIQFISVNSCYG	0.356 ± 0.4
ICCISKILLFCISM	6.53 ± 0.091
ICDINQCRMAFYLCFLLREY	3.35 ± 0.099

Substance	amyloid nucleation score
ICEVSLCYR	0.2 ± 1
ICGYWSLKVVCRMCHPYGNG	-1.17 ± 0.85
ICHCGRHAVHRRHTCHWTLG	inactive
ICKLRNSTGSTRIT	0.227 ± 0.45
ICLESNRFI	inactive
ICNPGVS	0.71 ± 0.8
ICSGGYLVWELPSGTADQVM	0.25 ± 0.48
ICSVRSELNSSTRC	0.803 ± 0.48
ICVGGNGADCFKMTTGGQLC	-0.481 ± 0.5
ICVRMSKFGCWTFSVKRGWQ	0.335 ± 0.77
IDCGIVRWKNRCGAYAFGVD	-1.52 ± 2.4
IDFYVCDMC	7.857 ± 0.058
IDNTLIIDFLFLCNVRTFLR	-0.162 ± 0.24
IDWQLTSLDQGSCFLA	-0.468 ± 0.88
IECPMAYTKTYFVYESEKRN	inactive
IELPRFYILVNFYGTLSLSL	3.83 ± 0.12
IENDGMSRAFC	0.635 ± 0.67
IEVGYLSTCEFLVRMRKL	0.346 ± 0.51
IEWVPTT	inactive
IFALWTHKTPRQIAPLGTQK	-0.835 ± 1.3
IFCITGAGLLDRCSSRTLAS	-0.175 ± 0.41
IFCVMVLSWSAVDPALSVA	-1.03 ± 0.81
IFEWFVPLEWSV	0.012 ± 1.4
IFLVCVSKN	0.601 ± 0.35
IFVYRRRMGSIV	1.08 ± 0.32

Substance	amyloid nucleation score
IFYFELPKFCKIKDISSKWV	inactive
IFYFVL	6.8 ± 0.074
IGLKKGHYNLILHYYFVWKV	0.505 ± 0.51
IGMWSHWR	0.137 ± 0.39
IGQGFNCIR	-0.083 ± 1.4
IGYCRGHAYKMRYFSVRWFV	-1.25 ± 1.7
IGYFWCCRLETANIVFNFVW	-0.724 ± 1.3
IHDAYVTESGYWVDV	1.29 ± 0.66
IHHSLHYPLYSWKSNWRTWG	-0.353 ± 0.61
IHRLSARCRLNI	0.657 ± 0.42
IIFVEWNSGRAC	-0.526 ± 0.51
IIGQLRI	0.454 ± 0.66
IIGQYMQFAYFSVDRTL	0.871 ± 0.38
IIILYMLRPAMSGWDVFACC	0.627 ± 0.18
IIIRCKSVVA	-0.656 ± 1.9
IILYVLANFIMWWREVFNPK	0.218 ± 0.48
IIMVRLFSRNGVEDC	1.61 ± 0.12
IINKS	-0.766 ± 2.4
IIRDSFKNRPETAYTHRTWD	1.13 ± 0.15
IIRFTTFPCFNVR	2.1 ± 0.13
IIRFWLTSVVIYMSFLCRGR	-1.2 ± 1.9
IISLVNVWQNMCR	5.15 ± 0.077
IISPYHLLLIKYRSSCSLLH	0.985 ± 0.33
IITCRSASETMWFSCFDGLA	2.95 ± 0.17
IKCPRLK	-0.466 ± 0.66

Substance	amyloid nucleation score
IKGFALVWTPFGLAFFYRG	0.113 ± 0.95
IKPDWKMKNRDGTTTKLI	2.6 ± 0.093
IKRKSAESNGCSLYLYDSLK	-0.189 ± 0.43
IKWANREALLLWVELGRLRW	-0.66 ± 0.84
IKYVQIGRRRLKWGGERRPL	0.311 ± 0.37
ILCCLMSFWDVRKFFFNQKA	-0.722 ± 0.41
ILCFFRECLLDWVSLGRFIV	inactive
ILCKVPVVASSNGS	-0.35 ± 0.5
ILFMLECGMSTTSCHKIRVC	-0.157 ± 0.36
ILGQYGALYSIGTHWFLFVI	-0.755 ± 0.37
ILHIEDAVMADWMHILMGSR	0.571 ± 0.35
ILIAIMNFARSEVVTNGHIR	2.13 ± 0.41
ILICQCLMLACGRVFSFYLV	-0.328 ± 0.57
ILKSSGICFDGLPTKFNL	0.127 ± 0.25
ILLGYGQSMSRHIPTDKNEL	-0.79 ± 0.74
ILLPWGMCWWMLCR	0.036 ± 0.55
ILLVSNEEISLCYCVYLGWM	5.729 ± 0.056
ILQFFDILSIYVCGWEHEL	6.273 ± 0.053
ILQIYLMWQVW	4.85 ± 0.05
ILSGRRDNSAERGRGGLWVM	-0.206 ± 1.2
ILSRKGLLVQRKRVNVVVIP	0.437 ± 0.32
ILSVVYVLVCVVQVLCKQWH	0.163 ± 0.43
ILTFQSCRRFACKAFMFRRR	2.07 ± 0.16
ILVGCSKSRRLNGGQLLIPS	0.314 ± 0.45
ILVLYSVRWIEATR	-0.224 ± 0.35

Substance	amyloid nucleation score
ILVVAVI	-0.64 ± 0.39
ILWFYYTLGACFCWLYINYK	0.26 ± 0.57
ILWLVRSGVSYQQGGDSTPV	0.919 ± 0.28
ILYFMLSRFTVVN	0.881 ± 0.76
ILYGISSFESIADWAGLMSV	0.535 ± 0.84
ILYTSTVGTQLPKDGLDC	0.593 ± 0.34
IMAFNDRDHG	-0.093 ± 0.21
IMGVDVLGYTLDPVGDCNVF	0.412 ± 0.73
IMHQYRRGYDRDLNWNRMFR	0.035 ± 0.72
IMLANVSLLVRNHGRY	3.02 ± 0.16
IMLQCYIVFCFRGRSLIRKA	-0.524 ± 0.36
IMNMIA	0.455 ± 0.48
IMRSMSGWFGFVMLFDAS	-0.598 ± 0.79
IMRYLGVKKVE	-0.245 ± 0.4
IMSYLKTLSPVIAMRTIERP	0.821 ± 0.5
INDRVDGSVIEMSLCRYG	1.19 ± 0.8
INIVVMGMAGRRQGVPVACV	1.59 ± 0.72
INKNCTANEP	-0.067 ± 0.23
INNTLNI	0.793 ± 0.47
INTSR	0.038 ± 0.23
IPLGPGLPACINEGLKNPVS	-0.439 ± 0.67
IPMLFMSLRV	0.171 ± 0.26
IPMPMLRRKKTGYLLSTGSA	0.532 ± 0.49
IPPCWLTGLFNQYMNWTRS	-0.134 ± 0.31
IQFPRLGGDTTVCDYGHVAI	1.32 ± 0.49

Substance	amyloid nucleation score
IQPLIWANYFVIGARV	3.66 ± 0.1
IQSFAMLMQVCLIAHLYRRL	0.108 ± 1
IRFKRFGADAHGNKYNSRWI	1.13 ± 0.32
IRHIRPFFNVKDI	-0.006 ± 0.37
IRIFNKHGHGG	-0.664 ± 0.36
IRKRDFGYKSLFPNGTAMIH	-0.83 ± 0.88
IRLRPERDLGVAWLCIGCKR	-0.314 ± 1.2
IRMVL	0.697 ± 0.44
IRRAENLFIRYSHR	0.855 ± 0.58
IRRSHSEVPVVA	0.22 ± 0.37
IRRSIGVRAPWTFSEEDGSS	0.6 ± 0.79
IRRYLSCPYNISIVYSENIV	-0.185 ± 0.71
IRTKILLLHKNQKTVVKGLG	0.073 ± 1.5
ISAMSVW	-0.031 ± 0.74
ISATCL	0.858 ± 0.76
ISCRFAMVLGLKSWILTYV	inactive
ISFSSYYNLVLDYLELSQCL	inactive
ISGMRGFILLGRRVFTKVSS	-0.277 ± 0.33
ISHNQIWVRIGISRLFQHKV	2 ± 0.35
ISKSFWTRGECCRK	0.368 ± 0.39
ISMTDYVPSMHYAQTRVHLN	-0.085 ± 0.78
ISPLSQYARLVRQVSRAWYD	0.569 ± 0.87
ISVCFWSIKYRSWAILMPKG	0.077 ± 0.58
ISYRGSFHTNMWTCILRTAK	0.082 ± 0.42
ITCSHPQRMLVCSCKSPWCF	3.31 ± 0.13

Substance	amyloid nucleation score
ITFIVAGI	-0.113 ± 0.21
ITLIGQHRFLLVFSTNQLNH	0.46 ± 0.3
ITNFMGGIRVYRCDASMKGG	0.395 ± 0.28
ITVSKKATWCRQRGMRGLRG	1.65 ± 0.59
ITYINLSSSYKIPRPTHMRI	6.07 ± 0.065
ITYIRHYCKPVVL	5.65 ± 0.11
IVASSISAQVSLLYRALCIY	3.69 ± 0.16
IVASYRYNYMYDLHLLSALQ	inactive
IVDSVRGKGVY	1.14 ± 0.79
IVGIVT	1.04 ± 0.35
IVGST	-0.894 ± 0.47
IVGVEGLKPIKAPLLLNRSV	inactive
IVLKVIINVCHYLTGGSTFA	6.475 ± 0.062
IVQTHYN	-0.817 ± 1.7
IVRVEWFSHYSFVFNGIDGG	0.679 ± 0.54
IVVNIYVRWYPVGTGWDYLT	inactive
IVVSQPVFEGYIWLLNVAGG	4.42 ± 0.094
IVWFCINDTASVVLKTLLSH	1.36 ± 0.78
IVWYELIESNVLKSKGCVVN	-0.322 ± 1.1
IVYLSCFVRCP	0.379 ± 0.56
IWCSVNEWQYRVKVV	0.03 ± 0.5
IWDSVLF	1.57 ± 0.33
IWGKC	-0.644 ± 0.76
IWLSFKDLCKVRICSS	0.803 ± 0.59
